Paper PMC6262902, “Characterization of a New Cyclohexylamine Oxidase From Acinetobacter sp. YT-02” (Frontiers in Microbiology, 2018)

B1: CHAOYT–02 (Acinetobacter sp. YT-02) (protein)
chain: MSVNDNRESASYDADVIVVGAGPSGSYAAKLLHDRGISVKLVEAKDRVGGRTWSSKTEAQGGPIDFGGQWIGETHVLLPELGEELGLETVSSIKPGNDIFVFNGQVTVGEEDQAPASASWTAELTRSFELLDEAGARLGWEAPWASPAVEALDGMTVAQWLDENVSSDEVRMIHEVMVNILNGANTTEVSMAYWAYFVHQGEGIESLIGTRSGAQIAWFVGGMGQVTELIADRLGDNLHLNWPVTSIEQQDSGVVVSSGDRRLTAKYVILATPPSDASRMIFDQPLPAKRAQLQARAPMGRLAKIQVRYRDAFWQEENLSGAAFVCGDLAFWVFDGSKPSDSLATIVGFIGGKHLDLWHSFTPEEREARFIDMLVTNIGEKARDTVYYHETDWTEQPWTGGAPVTFMPTGLLSSSGSALRGSAGRIHFAGTEAAPMWSGYIEGALRAGKIAATDIIARLG
notes: full-length ORF of 460 residues, no signal peptide; pET-28b 6xHis tag and vector residues kept (53,534 Da with tag); E. coli BL21 (DE3); dimer about 91 kDa; FAD enzyme

Experiments:
[1] = biological target: cyclohexylamine oxidase from Acinetobacter sp. YT-02 (Acinetobacter sp. YT-02); assay: SEC; gel filtration on Superose 6 Increase 10/300GL; 10 mM phosphate buffer, pH 7.4, 140 mM NaCl; calibrated with apoferritin (443 kDa), alcohol dehydrogenase (150 kDa), bovine albumin (66 kDa), carbonic anhydrase (29 kDa)
[2] = substrate: NC1CCCCC1; assay: purified protein; assay type: biochemical, Acinetobacter sp. YT-02; conditions: 50 °C, pH 7.0 sodium phosphate

Row | Molecule | stoichiometry N [1] | Km [2] [µM] | Vmax [2] [µM/min] | kcat [2] [s⁻¹] | kcat/Km [2] [M⁻¹ s⁻¹]
1 | cyclohexylamine oxidase from Acinetobacter sp. YT-02 (enzyme) | 2 | – | – | – | –
2 | B1 | – | 250 ± 20 | 4300 | 523 ± 10 | 2.08e+06
